Results published in article PMC3817407.
Values joined by “and” are separate entries in the source; they are usually repeats but may differ in a detail not shown here. Equal entries are not always repeated.

T1: ECF31_34
T1 chain: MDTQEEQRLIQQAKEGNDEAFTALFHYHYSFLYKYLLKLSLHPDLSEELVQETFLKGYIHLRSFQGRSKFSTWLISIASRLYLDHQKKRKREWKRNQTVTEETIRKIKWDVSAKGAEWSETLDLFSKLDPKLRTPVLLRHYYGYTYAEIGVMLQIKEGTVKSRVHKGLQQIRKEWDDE

T2: ECF28_1088
T2 chain: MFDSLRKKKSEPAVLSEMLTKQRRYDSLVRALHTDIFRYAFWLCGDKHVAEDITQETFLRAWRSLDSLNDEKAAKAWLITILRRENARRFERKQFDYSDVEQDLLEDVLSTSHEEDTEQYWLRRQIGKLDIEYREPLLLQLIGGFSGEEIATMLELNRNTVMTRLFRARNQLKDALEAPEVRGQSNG

T3: ECF25_1645
T3 chain: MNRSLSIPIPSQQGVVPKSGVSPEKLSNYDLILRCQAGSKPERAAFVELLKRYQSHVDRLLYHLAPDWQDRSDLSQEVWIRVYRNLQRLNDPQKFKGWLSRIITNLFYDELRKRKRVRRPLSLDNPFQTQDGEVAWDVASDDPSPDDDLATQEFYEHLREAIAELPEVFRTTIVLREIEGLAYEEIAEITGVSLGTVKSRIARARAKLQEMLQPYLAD

T4: ECF15_524
T4 chain: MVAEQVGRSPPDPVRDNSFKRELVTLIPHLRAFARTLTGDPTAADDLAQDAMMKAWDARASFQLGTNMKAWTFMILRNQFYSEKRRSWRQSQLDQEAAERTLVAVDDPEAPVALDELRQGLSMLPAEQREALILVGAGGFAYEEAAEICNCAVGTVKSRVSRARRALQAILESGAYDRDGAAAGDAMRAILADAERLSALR

T5: ECF25_1643
T5 chain: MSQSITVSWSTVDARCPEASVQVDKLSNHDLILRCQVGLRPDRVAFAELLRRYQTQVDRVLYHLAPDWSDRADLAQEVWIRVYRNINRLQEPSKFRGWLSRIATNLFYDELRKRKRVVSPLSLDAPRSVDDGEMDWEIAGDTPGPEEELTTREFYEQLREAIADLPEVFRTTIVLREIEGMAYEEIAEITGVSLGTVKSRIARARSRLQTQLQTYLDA

T6: ECF28_1040
T6 chain: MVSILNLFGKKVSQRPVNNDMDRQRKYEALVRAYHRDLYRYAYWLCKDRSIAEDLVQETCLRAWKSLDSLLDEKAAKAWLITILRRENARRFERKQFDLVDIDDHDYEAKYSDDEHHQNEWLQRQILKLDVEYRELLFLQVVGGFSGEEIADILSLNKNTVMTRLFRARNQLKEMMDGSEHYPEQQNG

T7: ECF22_4450
T7 chain: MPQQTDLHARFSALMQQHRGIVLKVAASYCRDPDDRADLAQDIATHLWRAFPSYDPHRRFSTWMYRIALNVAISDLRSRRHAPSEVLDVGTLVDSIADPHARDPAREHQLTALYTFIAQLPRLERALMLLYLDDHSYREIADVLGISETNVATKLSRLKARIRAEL

T8: ECF30_35
T8 chain: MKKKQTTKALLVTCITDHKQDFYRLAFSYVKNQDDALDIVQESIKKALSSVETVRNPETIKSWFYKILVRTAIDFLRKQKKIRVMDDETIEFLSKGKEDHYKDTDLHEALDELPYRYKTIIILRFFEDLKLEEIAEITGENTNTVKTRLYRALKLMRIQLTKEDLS

T9: ECF16_3622
T9 chain: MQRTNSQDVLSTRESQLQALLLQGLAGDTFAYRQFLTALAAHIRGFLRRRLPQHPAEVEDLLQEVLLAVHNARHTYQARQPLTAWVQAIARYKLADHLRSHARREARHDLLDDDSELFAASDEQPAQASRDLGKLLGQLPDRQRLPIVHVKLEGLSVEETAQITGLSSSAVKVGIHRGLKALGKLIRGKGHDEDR

T10: ECF20_992
T10 chain: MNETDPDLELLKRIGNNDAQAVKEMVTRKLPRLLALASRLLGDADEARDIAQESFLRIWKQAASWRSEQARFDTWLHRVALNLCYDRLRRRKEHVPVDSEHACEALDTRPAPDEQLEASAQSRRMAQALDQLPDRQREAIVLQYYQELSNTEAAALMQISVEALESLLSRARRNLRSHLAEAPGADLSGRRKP

T11: ECF01_3473
T11 chain: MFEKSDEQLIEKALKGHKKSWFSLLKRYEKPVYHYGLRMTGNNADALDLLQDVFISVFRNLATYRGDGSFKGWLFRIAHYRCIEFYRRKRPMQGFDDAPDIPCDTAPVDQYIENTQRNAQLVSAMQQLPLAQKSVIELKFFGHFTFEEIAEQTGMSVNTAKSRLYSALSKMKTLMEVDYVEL

T12: ECF17_1458
T12 chain: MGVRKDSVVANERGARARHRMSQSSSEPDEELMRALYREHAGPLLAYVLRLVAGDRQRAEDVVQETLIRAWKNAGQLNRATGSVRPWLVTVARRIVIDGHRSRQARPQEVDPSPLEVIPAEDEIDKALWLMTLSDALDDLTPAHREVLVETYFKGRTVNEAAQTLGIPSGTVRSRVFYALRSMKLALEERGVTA

T13: ECF02_2817
T13 chain: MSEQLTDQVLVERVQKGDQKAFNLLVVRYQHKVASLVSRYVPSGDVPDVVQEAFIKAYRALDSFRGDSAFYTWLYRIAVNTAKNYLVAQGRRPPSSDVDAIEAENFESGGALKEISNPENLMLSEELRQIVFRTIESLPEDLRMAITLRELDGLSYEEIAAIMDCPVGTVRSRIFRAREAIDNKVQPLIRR

T14: ECF17_1691
T14 chain: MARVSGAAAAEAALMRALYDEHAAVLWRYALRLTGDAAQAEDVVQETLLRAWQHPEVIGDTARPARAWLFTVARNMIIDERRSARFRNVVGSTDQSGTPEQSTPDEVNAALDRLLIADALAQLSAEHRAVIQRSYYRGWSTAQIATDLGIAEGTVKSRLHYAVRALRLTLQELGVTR


Key:
ECF31_34 = target: T1, ECF31_34
ECF28_1088 = target: T2, ECF28_1088
ECF25_1645 = target: T3, ECF25_1645
ECF15_524 = target: T4, ECF15_524
ECF25_1643 = target: T5, ECF25_1643
ECF28_1040 = target: T6, ECF28_1040
ECF22_4450 = target: T7, ECF22_4450
ECF30_35 = target: T8, ECF30_35
ECF16_3622 = target: T9, ECF16_3622
ECF20_992 = target: T10, ECF20_992
ECF01_3473 = target: T11, ECF01_3473
ECF17_1458 = target: T12, ECF17_1458
ECF02_2817 = target: T13, ECF02_2817
ECF17_1691 = target: T14, ECF17_1691

Binder	fold repression (ECF31_34)	fold repression (ECF28_1088)	fold repression (ECF25_1645)	fold repression (ECF15_524)	fold repression (ECF25_1643)	fold repression (ECF28_1040)	fold repression (ECF22_4450)	fold repression (ECF30_35)	fold repression (ECF16_3622)	fold repression (ECF20_992)	fold repression (ECF01_3473)	fold repression (ECF17_1458)	fold repression (ECF02_2817)	fold repression (ECF26_4464)	fold repression (ECF17_1691)
AS03_1244 (protein) MKQFDPDVNIRPKEDSIRHYSVPDDYFASFTDKLMAQIPAVKEENTVVVPSVALWPKLRPLLYLAASFLLMIGMFKAFSLFGVGSDTGRTTSTSAGLVALDHGDTRWSEDTDYRDFLHDNCAETVSDEWVLTDFSE	1.92	1.36	1.37	2.14	1.23 and 1.24	1.68	2.49	1.54	2.5	1.93	2.13	1.62	1.96	2.21	1.44
AS04_1609 (protein) MNRTTEQRNAEVMKTIGLLDQMPRVEVDHLFRVRLMQRIEAMEVKKTSWSALPGGAFNPRLAFMALLLMLNIASALMLFMHGTPQATGSSGAIAESLTEDYGGPALSYYDDQTTIDR	3.92	0.742	1.06	2.88	1.05 and 1.18	1.03	9.53	1.99	13.1	7.41	4.75	3.13	2.53	6.23	1.22
AS11_987 (protein) MNKHPDNNLLEAYASGSIDAVSGLVVATHLETCSKCRAYVNQVEASQANTVSESPSEYSPEFDDMLNDIINAEPVNDNVVIQDTAFVNVAGKSFELPKTLVRFSDLVGSWRSYGGKVFSAQIDLGEDARVSLMYIGENVQIPQHTHRGLESTLVLHGGFSDEDGQYEEGDLMVRDASVKHSPFTQEGEDCLCLTVLTEPMIFTQGVARIFNLFGKGLYP	2.53	1.97	2.46	3.35	2.1 and 1.71	2.02	5.44	2.89	5.11	3.26	4.16	2.13	3.07	2.97	2.68
AS14_1324 (protein) MSGSRPEPEGHLAEQHLGDRLSALVDGELGHDARERVLAHVATCPKCKAEVDAQRRLKNVFAEAAPPAPSESFLARLQGLPGGGDSDGGGSPFSGLPGGFGASAASGVFGPRRDERFEFDYVPAGSHTPVLPSATSGRGFRIHEVGRHESDRSASRGLRFAFAAAGAVSLAAIALGGVTLGTPDTTTEARGSGSGSNVTPLRTPGSAAATGSESQRRRTAGPLLGQGQRALGDLPVASTTASAPLLPGMPAPAGGDARQQAVRALTTPVTAGAAAMSPLIRPLEAVPPLSLSSWSAAPEVRPPGLLAAPDPAPSPYPAASPAASSSPLR	5.28	3.46	3.18	5.32	3.84 and 3.33	4.3	8.4	3.36	6.46	6.81	8.34	7.16	2.97	15.9	4.81
AS15_436 (protein) MAQSTEPKASPQEATAKGGDNTKGKSRKELQQQIDENLRRVYEEALVQEVPDRFAMLLDQLRQKGTGK	3.29	2.98	1.87	33.1	1.19 and 1.27	4.28	4.63	2.1	6.45	1.95	4.77	5.96	1.58	24.7	4.15
AS01_3473 (protein) MSNYDNAELLALWLEGKLTPKQRDEFEQRCIQDSQFAEQVDAAAMVKIGADDYSSSEVPQWNKAATFEPQQANNSGSWLSGVSLVTSALAIVLVLTGTQVTTSEGELRIRFGSGQSEQALVKLVDSKLDAFKQNQQDAFTLYAQTLQQQQSESASQLTNYLLSSSRKERREDFAELIKFVNQQRSDDQLFYARQLNQLQQDVYHDATGVALESIQQ	1.97	1.59	0.81	1.61	1.37 and 1.13	2.3	1.97	1.56	2.47	2.52	13	1.83	2.1	2.22	1.97
AS03_1198 (protein) MDKDFDFDNIGKRTPYRTPDNFFEETQRKILERTVDEQRKKRRLKRIIPTVIAVAAVLAGILFTPSLRYMNTDTPSASNILAVDKNNVTTDPVDKWIKELSDEELEELVSFSENDIFLN	1.12	1.24	0.816	1.49	0.95 and 0.944	1.23	1.2	1.17	1.26	0.888	2.38	0.894	1.85	1.48	0.986
